Laboratory results: paper doi:10.1101/2023.09.27.559698

Assays:
53BP1 GAR(3K)-Tudor = 53BP1 GAR(3K)-Tudor (Homo sapiens, UniProt Q12888 1288-1659, R1396K;R1398K;R1401K); experiment: SPR
53BP1 GAR-Tudor = 53BP1 GAR-Tudor (Homo sapiens, UniProt Q12888 1288-1659); experiment: SPR
Chain of 53BP1 GAR-Tudor (Q12888 1288-1659): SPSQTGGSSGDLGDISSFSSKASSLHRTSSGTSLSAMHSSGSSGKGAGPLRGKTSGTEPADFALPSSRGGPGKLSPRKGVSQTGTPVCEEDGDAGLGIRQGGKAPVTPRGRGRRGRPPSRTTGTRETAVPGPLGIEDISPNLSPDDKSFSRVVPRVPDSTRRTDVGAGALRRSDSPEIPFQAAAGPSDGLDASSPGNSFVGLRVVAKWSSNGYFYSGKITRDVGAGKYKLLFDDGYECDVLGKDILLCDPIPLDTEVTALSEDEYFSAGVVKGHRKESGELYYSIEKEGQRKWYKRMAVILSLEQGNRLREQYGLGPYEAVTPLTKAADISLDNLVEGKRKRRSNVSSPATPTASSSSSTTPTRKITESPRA

Chain of 53BP1 GAR(3K)-Tudor (Q12888 1288-1659 R1396K/R1398K/R1401K): as the sequence (Q12888 1288-1659) above, with R109K, R111K, R114K counted along it

## GCUGCGGUGUGGAAGGAGUGGUCGGGUUGCGCAGCG (structured_RNA) [SC1 RNA, biotinylated]
53BP1 GAR(3K)-Tudor
  binding result: no binding
53BP1 GAR-Tudor
  Kd: ~8 nM
